# Patent US20170152313A1 (Novartis, published 2017)
# Key:
# [1] = molecular target: Human Soluble His9-LOX-1 from R&D Systems (human, UniProt P78380 61-273); experiment: solution equilibrium titration (SET), MSD read-out
# Protocol: (§1) For humanized LOX-1 antibodies FF1, FF3, FF4, FF5, and FF6, the following solution equilibrium titration (SET) assay protocol was used to determine KD values. The assays were performed in a 96-well polypropylene plate (Thermo Scientific, Catalog no. AB-1127) as follows. A constant concentration of LOX-1 antibody (1 pM) was mixed with different concentrations of non-biotinylated human or cynomolgus monkey LOX-1 protein (3-fold serial dilution ranging from 1 nM to 0.017 pM) in SET buffer (PBS, pH 7.4 without CaCl₂ or MgCl₂, Gibco, catalog no. P7949; 0.5% w/v bovine serum albumin, fatty acid free, Calbiochem, catalog no. 26575; and 0.02% v/v Tween-20, Sigma, catalog no. P7949). The final reaction volume was […]. The plate was sealed using an adhesive film (WVR, catalog no. 60941-062) and incubated at 22° C. for 14 hours with constant shaking (300 rpm).
# (§2) During the same period, a 384-well streptavidin-coated MSD plate (Meso Scale Discovery, catalog no. L21SA) was blocked by incubating the plate with 50 μL blocking buffer (PBS, pH 7.4, 5% w/v bovine serum albumuin) per well overnight at 4° C. The blocked MSD plate was then washed 3 times with wash buffer (PBS, pH 7.4 and 0.05% v/v Tween-20) using a plate washer (BioTek). Following washing, biotinylated human or cynomolgus monkey soluble LOX-1 protein (25 pM, 15 μL per well) was immobilized on the surface by incubation at 22° C. for one hour with constant shaking (600 rpm). The plate was then washed 3 times as described earlier. In some experiments, non-biotinylated soluble human LOX-1 protein was used (R&D systems, catalog no. 1798-LX-050) was used; in this case the LOX-1 protein was immobilized by overnight incubation at 1 nM concentration in a standard MSD plate (MSD, catalog no. L21XA). The equilibrium binding reactions (15 μL per well) were then applied to the MSD plate with immobilized LOX-1 and incubated for 30 min. The unbound material was removed by washing the plate, and the captured antibody was detected by adding 15 μL per well of a 1:500 dilution of Sulfa-tagged goat anti-human IgG (Mesa Scale Discovery, catalog no. R3AJ-1). The plate was then incubated for one hour with constant shaking (600 rpm). The plate was washed 3 times, and then […] 1×MSD read buffer T(Meso Scale Discovery, catalog no. R92TC-2) was added and the plate was developed using a Sector Imager 6000 (Mesa Scale Discovery).
# [2] = molecular target: T1, APP-Avi-soluble cynomolgus monkey LOX-1 (61-273) (cynomolgus monkey, biotinylated at the Avi tag when immobilised in the SET assay); experiment: solution equilibrium titration (SET), MSD read-out
# T1 construct: Expressed and purified in the same way as the human protein; also called cynomolgus monkey soluble LOX-1; Cynomolgus Monkey Soluble APP-Avi-LOX-1
# T1 sequence (chain, as listed by the source): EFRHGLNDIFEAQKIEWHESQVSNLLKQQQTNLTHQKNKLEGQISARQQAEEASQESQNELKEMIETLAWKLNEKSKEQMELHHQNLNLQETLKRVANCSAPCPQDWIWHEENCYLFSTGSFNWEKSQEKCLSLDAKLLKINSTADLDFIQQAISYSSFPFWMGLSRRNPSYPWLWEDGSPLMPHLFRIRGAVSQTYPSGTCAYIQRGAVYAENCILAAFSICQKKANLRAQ
# Protocol: as §1, §2
# [3] = molecular target: T2, Human LOX-1 full-length protein (human, UniProt P78380 1-273); experiment: flow cytometry, biotinylated antibody on primary human neutrophils, PE-streptavidin
# T2 construct: also called huLOX-1/HEK293 cells; human LOX-1 transfected HEK293 cells
# Protocol: The resulting cell suspension was carefully transferred to a 50 mL conical tube containing 10 mL Ficoll-Paque, layering the cell suspension on top of the Ficoll-Paque, and the tube was then centrifuged at 1400 rpm (400×g) for 30 minutes at room temperature. The top layer was the discarded. To the resulting cell pellet, 10 mL 0.2% ice-cold sodium chloride was added, and the mixture was incubated for exactly 30 seconds to lyse red blood cells; 10 mL of ice-cold 1.6% sodium chloride was added to restore isotonicity. The cell suspension was then centrifuged at 1200 rpm ([…]) for 5 minutes. The supernantant was then discarded, and the red blood cell lysis procedure repeated once more. The resulting cell pellet was resuspended in FACS buffer (2 mM EDTA, 1% BSA, and 0.2% sodium azide in PBS) at a cell density of 2×10⁶ cells/mL.
# The cell suspension containing freshly isolated human neutrophils was transferred (50 ul/well) to wells of a 96-well V-bottom plate (1×10⁵ cells/well) (Costar, catalog number 3894). Blocking buffer (4% normal rabbit serum diluted in FACS buffer (2 mM EDTA, 1% BSA, and 0.2% sodium azide in PBS) (50 ul/well) was added and the plate was incubated on ice for 30 minutes. Biotinylated LOX-1 antibody (10 μl) in FACS buffer was then added to the wells at final concentrations ranging from 1 ng/ml to 5 ug/mL, and the plate was incubated on ice for 30 minutes. The plate was then centrifuged at 1200 rpm (250-300×g) for 3 minutes and supernatant was discarded. The cells were then washed twice with 0.2 mL FACS buffer, and then 0.1 mL of PE-streptavidin (BD Pharmingen catalog number 554061) diluted at 1:250 in FACS buffer was added, and the plate incubated on ice for 30 minutes. The plate was then centrifuged again, supernatant discarded, and the cells washed twice with 0.2 mL FACS buffer. Cells were then resuspended in 0.1 mL of fixing buffer (FACS buffer with 2% paraformaldehyde) and analyzed using a FACS instrument. To determine an EC50 value for neutrophil binding by LOX-1 antibodies, the LOX-1 staining intensity determined by FACS was plotted vs. the concentration of the antibody as shown in FIG. 5 and Table 3.
# [4] = molecular target: T2, Human LOX-1 full-length protein; experiment: cell-based or functional assay
# [5] = molecular target: T2, Human LOX-1 full-length protein; experiment: flow cytometry, inhibition of dil-OxLDL binding to huLOX-1/HEK293 cells
# Protocol: The huLOX-1/HEK293 cells were resuspended at 1×10⁶ cells/mL and seeded 50 μL per well into a 96-well V-bottom plate (5×10⁴ cells per well). LOX-1 or irrelevant control antibodies in assay medium (DMEM+10% FBS) were then added to the cells. Typical final antibody concentrations ranged from 0.006 μg/mL to 20 μg/mL. The cells were incubated at 37° C. for 1 hour, then washed twice with warm HBSS. Dil-oxLDL (human dil-labeled “High Oxidized” LDL, Kalen Biomedical, catalog number 770262-9; Dil is 1,1′-dioctadecyl-3,3,3′,3′-tetramethylindocarbocyanine perchlorate) in 50 ul assay medium was then added to a final concentration 30 to 100 μg/mL. The cells were then incubated at 37° C. for 2 hours, and then washed twice with FACS buffer (2% FBS in PBS). Cells were then analyzed for intensity of Di-I fluorescence by flow cytometry, as depicted in FIG. 2 and Table 3.
# [6] = molecular target: T1, APP-Avi-soluble cynomolgus monkey LOX-1 …; experiment: SPR Biacore T200, antibody captured by anti-human IgG, cynomolgus soluble LOX-1 as analyte, 1:1 model
# Protocol: Surface plasmon resonance measurements quantifying the interaction of humanized LOX-1 antibodies with human or cynomolgus monkey LOX-1 were done with the optical biosensor BIAcore T200 on a CM5 chip. Goat-anti-hlgG (gamma) (Invitrogen H10500) was coated at 3,000 RU on the CM5 chip in acetate buffer, pH 4.0. The running buffer used was PBS, pH 7.4 (filtered, degassed). Test antibodies were loaded into individual flow cells at a concentration of 1 ug/mL at a flow rate of 10 uL/min. The target number of IgG capture was between 20-30 RU, in HBS-EP buffer (0.01M HEPES, pH 7.4, 0.15M NaCl, 3 mM EDTA, 0.05% P20). Human or cynomolgus monkey soluble LOX-1 was diluted to a concentration of 33 nM in HBS-EP buffer, then diluted serially (1:3) down to a concentration of 0.137 nM. This represents six different concentrations of human or cynomolgus monkey LOX-1. The antigen was introduced into individual flow cells at a flow rate of 30 uL/min. Parameters for association time were set at 700 seconds and dissociation time was set at 5,400 seconds. Data were analyzed using buffer blanks, reference blank, and a 1:1 binding model for curve fitting in order to determine association and dissociation rate constants (ka and kd) and equilibrium binding constants (KD) (see results for FF1, FF3, FF4, FF5, and FF6 in Tables 7-8).
Binder,Kd [1] [nM],Kd [2] [nM],EC50 [3] [µg/mL],"Reactive oxygen species (ROS) generation in huLOX-1/HEK293 cells (IC50, nM) [4] [nM]",IC50 [5] [nM],Kd [6] [nM],koff [6] [s⁻¹],kon [6] [M⁻¹ s⁻¹]
"FF5 (antibody, human IgG1, kappa, L234A L235A, V domains shown, Humaneered variant of E2E10, tested as full human IgG; Biotinylated for the neutrophil assay; also called LLG787; LLG787 (FF5)) VH: QVQLVQSGAEVKKPGASVKVSCKASGYTFTDYEVHWVRQAPGQGLEWMGAIHPGSGGAAYVQKFQGRVTMTRDTSISTAYMELSRLRSDDTAVYYCARWLPMDYWGQGTLVTVSS VL: DIQMTQSPSSVSASVGDRVTITCRASQGINNWLVWYQQKPGKAPKLLLYAASRLESGVPSRFSGSGSGTDYTLTISSLQPEDIATYYCQQYLITPYTFGQGTKLEIKR",0.0008,0.0006,0.08,4.8,4.1,0.035,4.8e-05,1.4e+06
"FF1 (antibody, human IgG1, kappa, L234A L235A, V domains shown, Humaneered variant of E2E10, tested as full human IgG (captured or detected with anti-human IgG); Biotinylated for the neutrophil assay; also called LLG783; LLG783 (FF1)) VH: QVQLVQSGAEVKKPGASVKVSCKASGYTFTDYEVHWVRQAPGQGLEWMGAIHPGSGGAAYVQKFQGRVTMTRDTSTSTAYMELSSLRSDDTAVYYCARWLPMDYWGQGTLVTVSS VL: DIQMTQSPSSVSASVGDRVTITCRASQGINNWLVWYQQKPGKAPKLLIYAASSLQSGVPSRFSGSGSGADYTLTISSLQPEDFATYYCQQYLITPYTFGQGTKLEIKR",0.0031,0.0018,0.15,6,5.5,0.012,1.3e-05,1.1e+06

# The remaining lines, values ahead:
Kd [1] [nM],Kd [2] [nM],EC50 [3] [µg/mL],"Reactive oxygen species (ROS) generation in huLOX-1/HEK293 cells (IC50, nM) [4] [nM]",IC50 [5] [nM],Kd [6] [nM],koff [6] [s⁻¹],kon [6] [M⁻¹ s⁻¹],Binder
0.0007,0.0007,0.23,5.3,5,0.001,2.6e-06,2.1e+06,"FF4 (antibody, human IgG1, kappa, L234A L235A, V domains shown, Humaneered variant of E2E10, tested as full human IgG; the text and claims pair heavy chain 56 with light chain 66; Biotinylated for the neutrophil assay; also called LLG786; LLG786 (FF4)) VH: QVQLVQSGAEVKKPGASVKVSCKASGYTFTDYEVHWVRQAPGQGLEWMGAIHPGSGGAAYVQKFQGRVTMTRDTSISTAYMELSRLRSDDTAVYYCARWLPMDYWGQGTLVTVSS VL: DIQMTQSPSSVSASVGDRVTITCRASQGITNWLAWYQQKPGKAPKLLIYAASILESGVPSRFSGSGSGTDYTLTISSLQPEDIATYYCQQYLITPYTFGQGTKLEIKR"
0.0023,0.0034,0.13,7.4,3.3,0.023,1.7e-05,770000,"FF3 (antibody, human IgG1, kappa, L234A L235A, V domains shown, Humaneered variant of E2E10, tested as full human IgG; Biotinylated for the neutrophil assay; also called LLG785; LLG785 (FF3)) VH: QVQLVQSGAEVKKPGASVKVSCKASGYTFTDYEVHWVRQAPGQGLEWMGAIHPGSGGAAYVQKFQGRVTMTRDTSISTAYMELSRLRSDDTAVYYCARWLPMDYWGQGTLVTVSS VL: DIQMTQSPSSVSASVGDRVTITCRASQGINNWLVWYQQKPGKAPKLLIYAASSLQSGVPSRFSGSGSGADYTLTISSLQPEDFATYYCQQYLITPYTFGQGTKLEIKR"
0.002,0.0016,0.28,7.9,5.9,0.053,5e-05,950000,"FF6 (antibody, human IgG1, kappa, L234A L235A, V domains shown, Humaneered variant of E2E10, tested as full human IgG; Biotinylated for the neutrophil assay; also called LLG788; LLG788 (FF6)) VH: QVQLVQSGAEVKKPGASVKVSCKASGYTFTDYEVHWVRQAPGQGLEWMGAIHPGSGGAAYVQKFQGRVTMTRDTSISTAYMELSRLRSDDTAVYYCARWLPIDYWGQGTLVTVSS VL: DIQMTQSPSSVSASVGDRVTITCRASQGINNWLVWYQQKPGKAPKLLLYAASRLESGVPSRFSGSGSGTDYTLTISSLQPEDIATYYCQQYLITPYTFGQGTKLEIKR"
